Publication PMC10716051, “Cryo-EM reveals how Hsp90 and FKBP immunophilins co-regulate the glucocorticoid receptor” (Nature Structural & Molecular Biology, 2023)

T1: human FKBP51 (human, UniProt Q13451 1-457)
T1 construct: FKBP51, human; The His6 tag is cleavable; source: bacterial expression plasmid pET151, purified
T1 sequence: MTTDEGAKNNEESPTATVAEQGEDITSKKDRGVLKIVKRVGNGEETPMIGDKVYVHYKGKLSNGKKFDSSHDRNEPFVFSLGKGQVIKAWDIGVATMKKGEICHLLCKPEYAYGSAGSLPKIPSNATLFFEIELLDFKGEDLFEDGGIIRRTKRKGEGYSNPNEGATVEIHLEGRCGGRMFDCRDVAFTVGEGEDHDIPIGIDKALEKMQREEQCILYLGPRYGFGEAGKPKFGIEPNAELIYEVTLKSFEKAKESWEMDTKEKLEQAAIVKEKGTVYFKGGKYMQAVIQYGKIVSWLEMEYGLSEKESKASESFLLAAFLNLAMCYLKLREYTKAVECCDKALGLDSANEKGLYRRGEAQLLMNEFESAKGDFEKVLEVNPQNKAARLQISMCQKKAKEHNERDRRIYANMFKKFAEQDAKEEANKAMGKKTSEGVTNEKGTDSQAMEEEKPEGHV

B1: human GR DBD-LBD (residues 418-777, F602S) (domain or fragment, UniProt P04150 418-777, looked up)
chain: PKLCLVCSDEASGCHYGVLTCGSCKVFFKRAVEGQHNYLCAGRNDCIIDKIRRKNCPACRYRKCLQAGMNLEARKTKKKIKGIQQATTGVSQETSENPGNKTIVPATLPQLTPTLVSLLEVIEPEVLYAGYDSSVPDSTWRIMTTLNMLGGRQVIAAVKWAKAIPGFRNLHLDDQMTLLQYSWMSLMAFALGWRSYRQSSANLLCFAPDLIINEQRMTLPCMYDQCKHMLYVSSELHRLQVSYEEYLCMKTLLLLSSVPKDGLKSQELFDEIRMTYIKELGKAIVKREGNSSQNWQRFYQLTKLLDSMHEVVENLLNYCFQTFLDKTMSIEFPEMLAEIITNQIPKYSNGNIKKLLFHQK
notes: glucocorticoid receptor, human; codon optimized; The His6-MBP tag is cleavable; the complex was pulled down on MBP-GR DBD-LBD; Only the LBD was visible in the maps; also called glucocorticoid receptor; MBP-GR DBD-LBD; source: E. coli BL21 star (DE3), purified (Ni-NTA, size exclusion); not shown: MBP, N-terminal, kept
B2: human FKBP52 (natural protein)
chain: MTAEEMKATESGAQSAPLPMEGVDISPKQDEGVLKVIKREGTGTEMPMIGDRVFVHYTGWLLDGTKFDSSLDRKDKFSFDLGKGEVIKAWDIAIATMKVGEVCHITCKPEYAYGSAGSPPKIPPNATLVFEVELFEFKGEDLTEEEDGGIIRRIQTRGEGYAKPNEGAIVEVALEGYYKDKLFDQRELRFEIGEGENLDLPYGLERAIQRMEKGEHSIVYLKPSYAFGSVGKEKFQIPPNAELKYELHLKSFEKAKESWEMNSEEKLEQSTIVKERGTVYFKEGKYKQALLQYKKIVSWLEYESSFSNEEAQKAQALRLASHLNLAMCHLKLQAFSAAIESCNKALELDSNNEKGLFRRGEAHLAVNDFELARADFQKVLQLYPNNKAAKTQLAVCQQRIRRQLAREKKLYANMFERLAEEENKAKAEASSGDHPTDTEMKEEQKSNTAGSQSQVETEA
notes: FKBP52 (gene FKBP4), human; The His6 tag is cleavable; source: bacterial expression plasmid pET151, purified

Assays:
Conditions in all cases: both partners purified
human Hsp90α = target: T2, human Hsp90α (human, UniProt P07900 1-732); assay: cryo-EM structure; GR chaperone cycle reconstituted in vitro from purified components (GR DBD-LBD, Hsp70, Hsp40, Hop, Hsp90, p23, Bag-1) with FKBP52; 20 mM sodium molybdate; pulldown on MBP-GR DBD-LBD, size exclusion, 0.02% glutaraldehyde crosslinking; datasets I and II
T2 construct: Hsp90α, human; also called Hsp90A; Hsp90B (the two protomers of the dimer)

human FKBP52 = target: B2; assay: as above
human FKBP51 = target: T1, human FKBP51; assay: cryo-EM structure; GR chaperone cycle reconstituted in vitro from purified components (GR DBD-LBD, Hsp70, Hsp40, Hop, Hsp90, p23, Bag-1) with FKBP51; 20 mM sodium molybdate; pulldown on MBP-GR DBD-LBD, size exclusion, 0.02% glutaraldehyde crosslinking; datasets III and IV

Binder | binding result (human Hsp90α) | binding result (human FKBP52) | binding result (human FKBP51)
B1 | binds | binds | binds
B2 | binds |  | 
